Assay results published in US20240415919A1, “COMPOSITIONS AND METHODS FOR TREATMENT OF AUTOIMMUNE DISORDERS AND CANCER” (Dana-Farber Cancer Institute, Inc., priority 2021, published 2024).
Changes are numbered by the printed parent chain. One block for each molecule: values may come before it.

Tests used:
[1] = target: Ly49F (mouse) (UniProt Q60653); assay: cell-based or functional assay
[2] = system: FL9.2 T cells; assay: FL9 peptide immunization of hosts adoptively transferred with FL9.2 T cells; type: in vivo, mouse
Method: CD45.1+B6 hosts were adoptively transferred with FL9.2 T cells and immunized i.p. with FL9 in CFA or no peptide (CFA alone) on day 0. Three days later, activation (CD69) proliferation of FL9.2 T cells (Ki67) was measured.
(§1) CD45.1^+ B6 or TCRα^−/− mice were transferred with CFSE labelled 2×10^6 FL9.2 Tg T cells followed by i.p. immunization with 100 μg FL9 or FL9-68 peptides in CFA. Proliferation and activation of FL9.2 Tg T cells in the adoptive hosts were analzyed by assessing CFSE dilution, Ki67 and CD69 expression at day 3 and 6 after transfer.
as §1, with “CD45.1^+B6” for “CD45.1^+ B6”

[3] = system: Balb/C heart allografts; assay: Balb/C heart transplantation into skin-sensitized B6 hosts after peptide vaccination; settings: immunized hosts, FIG. 11B
[4] = target: T1, FL9-68, synthetic superagonist variant of the FL9 self-peptide (P to L at position 7) peptide on Qa-1b (mouse); assay: activation reporter or marker
T1 peptide: FYAEATLML

[5] = target: T2, FL9 self-peptide (source protein not named) peptide on Qa-1b (mouse); assay: multimer staining
T2 peptide: FYAEATPML

[6] = target: T2, FL9 self-peptide (source protein not …); assay: Kd or kinetics
[7] = target: T3, Hsp60 (Hsp60p216) peptide on Qa-1b (mouse); assay: multimer staining
T3 peptide: GMKFDRGYI

Ly49F (mouse), sequence (Q60653 whole entry): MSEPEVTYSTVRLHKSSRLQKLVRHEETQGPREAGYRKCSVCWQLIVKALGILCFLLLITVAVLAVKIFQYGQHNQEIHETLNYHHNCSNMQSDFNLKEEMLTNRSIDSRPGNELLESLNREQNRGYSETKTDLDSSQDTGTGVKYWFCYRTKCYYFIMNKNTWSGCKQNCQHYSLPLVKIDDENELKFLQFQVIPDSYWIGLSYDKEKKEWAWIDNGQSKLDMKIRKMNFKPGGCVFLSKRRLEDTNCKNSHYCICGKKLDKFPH

Molecule: Chimeric anti-Ly49F Ab (HBF-719 with mIgG2a Fc) (antibody)
depletion of Ly49F+ CD8 Treg in spleen, lymphocytes and blood [1]: > 95%

Molecule: FYAEATPML [FL9, reference compound]
in vivo activation/proliferation of transferred FL9 TCR+ CD8 T cells ([2]; i.p. immunization with peptide in CFA, CD45.1+ B6 or TCRα-/- hosts): no in vivo stimulation of FL9.2 T cells | expansion of CD8 Treg after immunization ([2]; immunization of mice with the self-peptide): did not elicit detectable expansion of CD8 Treg | expansion of FL9-Qa-1 tetramer binding CD8 Treg (CD44+CD122+Ly49+CD8+T) [3]: 8 fold

B1: FL9.2 TCR (TCR, V domains shown)
Valpha: AQSVTQPDARVTVSEGASLQLRCKYSYFGTPYLFWYVQYPRQGLQLLLKYYPGDPVVQGVNGFEAEFSKSNSSFHLRKASVHWSDWAVYFCAVRANTGKLTFGDGTVLTVKP
Vbeta: DSGVVQSPRHIIKEKGGRSVLTCIPISGHSNVVWYQQTLGKELKFLIQHYEKVERDKGFLPSRFSVQQFDDYHSEMNMSALELEDSAMYFCASSPRLASAETLYFGSGTRLTVL
binding result [4]: recognises

B2: FL9.30 (TCR, V domains shown)
Valpha: AQSVTQPDARVTVSEGASLQLRCKYSYFGTPYLFWYVQYPRQGLQLLLKYYPGDPVVQGVNGFEAEFSKSNSSFHLRKASVHWSDWAVYFCAVSSNNAGAKLTFGGGTRLTVRP
Vbeta: B1 Vbeta with P95R, L97P
binding result [5]: recognises

B3: FL9.43 (TCR, V domains shown)
Valpha: B1 Valpha with R94K, A95S, N96T, T97G, G98S, T101S, D104K, T106A, V107K, K111S
Vbeta: NSGVVQSPRYIIKGKGERSILKCIPISGHLSVAWYQQTQGQELKFFIQHYDKMERDKGNLPSRFSVQQFDDYHSEMNMSALELEDSAVYFCASSPRLGSAETLYFGSGTRLTVL
binding result [5]: recognises

B4: FL9.5 (TCR, V domains shown)
Valpha: B1 Valpha with R94K, A95G, N96G, T97N, G98Y, L100P, D104K, V107S, T109V, K111H
Vbeta: NSGVVQSPRYIIKGKGERSILKCIPISGHLSVAWYQQTQGQELKFFIQHYDKMERDKGNLPSRFSVQQFDDYHSEMNMSALELEDSAVYFCASSLTGAYEQYFGPGTRLTVL
binding result [5]: recognises

B5: FL9.41 (TCR, V domains shown)
Valpha: AQSVTQPDARVTVSEGASLQLRCKYSYFGTPYLFWYVQYPRQGLQLLLKYYPGDPVVQGVNGFEAEFSKSNSSFHLRKASVHWSDWAVYFCAVSIWATSSGQKLVFGQGTILKVYL
Vbeta: VTLLEQNPRWRLVPRGQAVNLRCILKNSQYPWMSWYQQDLQKQLQWLFTLRSPGDKEVKSLPGADYLATRVTDTELRLQVANMSQGRTLYCTCSARQGSGNTLYFGEGSRLIVV
binding result [5]: recognises

B10: FL9.38 (TCR, V domains shown)
Valpha: QQKVQQSPESLSVPEGGMASLNCTSSDRNFQYFWWYRQHSGEGPKALMSIFSDGDKKEGRFTAHLNKASLHVSLHIRDSQPSDSALYFCALSESSGSWQLIFGSGTQLTVMP
Vbeta: EAAVTQSPRSKVAVTGGKVTLSCHQTNNHDYMYWYRQDTGHGLRLIHYSYVADSTEKGDIPDGYKASRPSQENFSLILELASLSQTAVYFCASRDRGDQNTLYFGAGTRLSVL
binding result [5]: no recognition

B11: FL9.15 (TCR, V domains shown)
Valpha: GDSVTQTEGPVTVSESESLIINCTYSATSIAYPNLFWYVRYPGEGLQLLLKVITAGQKGSSRGFEATYNKETTSFHLQKASVQESDSAVYYCALGEASSGSWQLIFGSGTQLTVMP
Vbeta: DSGVVQSPRHIIKEKGGRSVLTCIPISGHSNVVWYQQTLGKELKFLIQHYEKVERDKGFLPSRFSVQQFDDYHSEMNMSALELEDSAMYFCASSLGQGNYAEQFFGPGTRLTVL
binding result [5]: no recognition

The remaining lines, values ahead:

binding result [5]: recognises
B6: FL9.26 (TCR, V domains shown)
Valpha: AQSVTQPDARVTVSEGASLQLRCKYSYFGTPYLFWYVQYPRQGLQLLLKYYPGDPVVQGVNGFEAEFSKSNSSFHLRKASVHWSDWAVYFCAVSTGGYKVVFGSGTRLLVSP
Vbeta: B3 Vbeta with P95H, L97S, G98F, A100G, E101N, S107E, T109S, T112I, L114V

binding result [6]: recognises | binding result [4]: recognises | binding result [7]: no recognition
B7: FL9.8 TCR (TCR, V domains shown)
Valpha: AQSVTQPDARVTVSEGASLQLRCKYSYFGTPYLFWYVQYPRQGLQLLLKYYPGDPVVQGVNGFEAEFSKSNSSFHLRKASVHWSDWAVYFCAVRANYAQGLTFGLGTRVSVFP
Vbeta: NSGVVQSPRYIIKGKGERSILKCIPISGHLSVAWYQQTQGQELKFFIQHYDKMERDKGNLPSRFSVQQFDDYHSEMNMSALELEDSAVYFCASSLLGGPSAETLYFGSGTRLTVL

binding result [5]: recognises
B8: FL9.34 (TCR, V domains shown)
Valpha: B7 Valpha with A95G, N96Q, Y97G, A98G, Q99R, G100A, T102I, L105T, R108T, F112S
Vbeta: NSGVVQSPRYIIKGKGERSILKCIPISGHLSVAWYQQTQGQELKFFIQHYDKMERDKGNLPSRFSVQQFDDYHSEMNMSALELEDSAVYFCASSPGPSQNTLYFGAGTRLSVL

binding result [5]: recognises
B9: FL9.31 (TCR, V domains shown)
Valpha: AQSVTQPDARVTVSEGASLQLRCKYSYFGTPYLFWYVQYPRQGLQLLLKYYPGDPVVQGVNGFEAEFSKSNSSFHLRKASVHWSDWAVYFCAVKDSGYNKLTFGKGTVLLVSP
Vbeta: NSGVVQSPRYIIKGKGERSILKCIPISGHLSVAWYQQTQGQELKFFIQHYDKMERDKGNLPSRFSVQQFDDYHSEMNMSALELEDSAVYFCASSLAGREQYFGPGTRLTVL

binding result [5]: recognises
B12: FL9.35 (TCR, V domains shown)
Valpha: B6 Valpha with T95M, G96M, V100L, V101T, S104T, R107S, S111D
Vbeta: B1 Vbeta with P95R, R96T, L97G, A98G

binding result [5]: recognises
B13: FL9.40 (TCR, V domains shown)
Valpha: AQSVTQPDARVTVSEGASLQLRCKYSYFGTPYLFWYVQYPRQGLQLLLKYYPGDPVVQGVNGFEAEFSKSNSSFHLRKASVHWSDWAVYFCAVTRYGSSGNKLIFGIGTLLSVKP
Vbeta: B1 Vbeta with A98G
